The supplement of paper PMC7125110
± gives the standard error. For some of these results: Fewer inactive variants are shown than the library holds.

B1: glmS ribozyme (parent)
chain: AUAAAAGCGCCAGAACUACAGAAAUGUAGUUGACGAGGAGGAGGUUUAUCGAAUUUUCGGCGGAUGCCUCCAAA

Columns and labels:
Conditions in all cases: with glucosamine-6-phosphate
[1] = variants of: B1; test: kcat; higher = faster cleavage; RNA array
Method in brief: (§1)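 Barcoded ribozyme variants on sequenced MiSeq chips were transcribed in situ by E. coli RNA polymerase and followed at 37 °C through a hybridised Cy3 probe. Glucosamine-6-phosphate at 40 μM to 10 mM in HEPES/KCl/Mg(OAc)2 buffer was flowed in, and tiles were imaged over ~14 h. Signals were normalised to baseline and to non-cleaving reference variants, and per-tile medians were fit to one- or two-exponential decays to give kobs. Weighted Michaelis–Menten fits across concentrations gave kcat and KM.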

[2] = variants of: B1; test: KM; higher = weaker cofactor use; RNA array
Method in brief: as §1

[3] = variants of: B1; test: self-cleavage kobs at 2500 uM GlcN6P; higher = faster cleavage; RNA array
Method in brief: as §1

[4] = variants of: B1; test: self-cleavage kobs at 10000 uM GlcN6P; higher = faster cleavage; RNA array
Method in brief: as §1

[5] = variants of: B1; test: self-cleavage kobs at 160 uM GlcN6P; higher = faster cleavage; RNA array
Method in brief: as §1

[6] = variants of: B1; test: self-cleavage kobs at 640 uM GlcN6P; higher = faster cleavage; RNA array
Method in brief: as §1

[7] = variants of: B1; test: self-cleavage kobs at 40 uM GlcN6P; higher = faster cleavage; RNA array
Method in brief: as §1

Row | Variant | kcat [1] | KM [2] | self-cleavage kobs at 2500 uM GlcN6P [3] | self-cleavage kobs at 10000 uM GlcN6P [4] | self-cleavage kobs at 160 uM GlcN6P [5] | self-cleavage kobs at 640 uM GlcN6P [6] | self-cleavage kobs at 40 uM GlcN6P [7]
1 | G29A G66C | 6.73e-05 ± 1.1e-05 s⁻¹ | 1940 ± 930 µM | 4.16e-05 ± 1.1e-05 s⁻¹ | 5.41e-05 ± 1.4e-05 s⁻¹ | – | – | –
2 | G29A U31C | 0.000716 ± 0.00016 s⁻¹ | 2070 ± 780 µM | 0.000333 ± 7.1e-05 s⁻¹ | 0.000668 ± 0.00012 s⁻¹ | 7.58e-05 ± 2e-05 s⁻¹ | 0.000161 ± 3e-05 s⁻¹ | –
3 | C16U U65G | 0.0044 ± 0.00062 s⁻¹ | 4300 ± 840 µM | 0.00147 ± 0.00018 s⁻¹ | 0.0032 ± 0.00028 s⁻¹ | 0.000151 ± 1.7e-05 s⁻¹ | 0.000544 ± 7.2e-05 s⁻¹ | 5.04e-05 ± 6.5e-06 s⁻¹
4 | C16U U65A | 0.00359 ± 0.00068 s⁻¹ | 2370 ± 610 µM | 0.00193 ± 0.00025 s⁻¹ | 0.00276 ± 0.00049 s⁻¹ | 0.000189 ± 2.9e-05 s⁻¹ | 0.000817 ± 0.00011 s⁻¹ | 7.34e-05 ± 1.2e-05 s⁻¹
5 | G29A C58A | 0.000173 ± 2.2e-06 s⁻¹ | 875 ± 32 µM | 0.000126 ± 2.9e-05 s⁻¹ | 0.00016 ± 3e-05 s⁻¹ | – | 7.35e-05 ± 1.6e-05 s⁻¹ | –
6 | C16U U54C U69C | 0.0043 ± 0.0021 s⁻¹ | – | 0.00258 ± 0.00059 s⁻¹ | 0.00361 ± 0.0013 s⁻¹ | – | 0.000965 ± 0.00017 s⁻¹ | 0.000216 ± 7.7e-05 s⁻¹
7 | G29A G32U | 0.00277 ± 0.00084 s⁻¹ | – | 0.000325 ± 5.7e-05 s⁻¹ | 0.000888 ± 0.00014 s⁻¹ | – | 7.58e-05 ± 1.8e-05 s⁻¹ | –
8 | U30A U47A | 0.00539 ± 0.0011 s⁻¹ | 3150 ± 930 µM | 0.0025 ± 0.00032 s⁻¹ | 0.00373 ± 0.00086 s⁻¹ | 0.000206 ± 5.9e-05 s⁻¹ | 0.000968 ± 0.00012 s⁻¹ | –
9 | U30A C58G | 5.56e-05 ± 1.8e-05 s⁻¹ | – | 8.28e-05 ± 2.5e-05 s⁻¹ | 4.77e-05 ± 1.1e-05 s⁻¹ | – | – | –
10 | C16U G59A | 6.33e-05 ± 4e-06 s⁻¹ | 1180 ± 390 µM | 4.86e-05 ± 1.2e-05 s⁻¹ | 5.59e-05 ± 6.3e-06 s⁻¹ | – | – | –
11 | C16U G40U | 0.00189 ± 0.00089 s⁻¹ | – | 0.00106 ± 0.00024 s⁻¹ | 0.00317 ± 0.0006 s⁻¹ | 0.000209 ± 5e-05 s⁻¹ | 0.00095 ± 0.00016 s⁻¹ | 0.000134 ± 2e-05 s⁻¹
12 | C16U U31G | 0.0126 ± 0.0042 s⁻¹ | 3460 ± 1500 µM | 0.00478 ± 0.00085 s⁻¹ | 0.0111 ± 0.0031 s⁻¹ | 0.00118 ± 0.00045 s⁻¹ | 0.00226 ± 0.00062 s⁻¹ | 0.000138 ± 2.7e-05 s⁻¹
13 | G29U U69A | 5.85e-05 ± 1.1e-05 s⁻¹ | – | 6.77e-05 ± 9.3e-06 s⁻¹ | 4.84e-05 ± 1.1e-05 s⁻¹ | – | 3.35e-05 ± 1e-05 s⁻¹ | –
14 | G29U U54G | 0.00305 ± 0.00096 s⁻¹ | 1760 ± 820 µM | 0.0013 ± 0.00024 s⁻¹ | 0.00321 ± 0.00046 s⁻¹ | 0.000223 ± 4.1e-05 s⁻¹ | 0.00114 ± 0.00016 s⁻¹ | 7.25e-05 ± 1.3e-05 s⁻¹
15 | U30C A36C | < 1e-05 s⁻¹ | – | < 1e-05 s⁻¹ | < 1e-05 s⁻¹ | – | – | < 1e-05 s⁻¹
16 | G29C A33C | < 1e-05 s⁻¹ | – | – | – | – | < 1e-05 s⁻¹ | –
17 | G29C A33G | 1.09e-05 ± 3.1e-06 s⁻¹ | – | – | – | – | – | –

Row | Variant | kcat [1] | KM [2] | self-cleavage kobs at 2500 uM GlcN6P [3] | self-cleavage kobs at 10000 uM GlcN6P [4] | self-cleavage kobs at 160 uM GlcN6P [5] | self-cleavage kobs at 640 uM GlcN6P [6] | self-cleavage kobs at 40 uM GlcN6P [7]
18 | G29U U65G | 0.00182 ± 0.0005 s⁻¹ | 4450 ± 1800 µM | 0.000739 ± 0.0001 s⁻¹ | 0.00124 ± 0.00017 s⁻¹ | 8.11e-05 ± 1.6e-05 s⁻¹ | 0.000188 ± 3e-05 s⁻¹ | 3.41e-05 ± 1.4e-05 s⁻¹
19 | G29U U65A | 0.000516 ± 4.5e-05 s⁻¹ | 2110 ± 340 µM | 0.000323 ± 5.9e-05 s⁻¹ | 0.000411 ± 6e-05 s⁻¹ | 3.8e-05 ± 1.4e-05 s⁻¹ | 0.000114 ± 1.9e-05 s⁻¹ | –
20 | U30C C50U | < 1e-05 s⁻¹ | – | – | – | – | – | –
21 | U30C C50G | 0.000183 ± 3.9e-05 s⁻¹ | – | 0.000149 ± 3.8e-05 s⁻¹ | 0.000318 ± 9.9e-05 s⁻¹ | 0.000338 ± 0.00011 s⁻¹ | 0.000179 ± 4.8e-05 s⁻¹ | 0.000126 ± 3.1e-05 s⁻¹
22 | U30A G41C | 4.61e-05 ± 3.9e-06 s⁻¹ | 5270 ± 1100 µM | – | – | – | – | < 1e-05 s⁻¹
23 | G29C A52U | 5.44e-05 ± 2.8e-06 s⁻¹ | 1790 ± 390 µM | 3.25e-05 ± 1.4e-05 s⁻¹ | 4.6e-05 ± 1e-05 s⁻¹ | – | – | < 1e-05 s⁻¹
24 | G29U C70A | 6.65e-05 ± 8.1e-06 s⁻¹ | – | 6.79e-05 ± 7.2e-06 s⁻¹ | 5.54e-05 ± 7.6e-06 s⁻¹ | – | 4.74e-05 ± 7.5e-06 s⁻¹ | –
25 | G29C G40U | 0.000193 ± 6.2e-06 s⁻¹ | 1880 ± 150 µM | 0.000106 ± 1.3e-05 s⁻¹ | 0.000165 ± 1.5e-05 s⁻¹ | – | 5.1e-05 ± 8.7e-06 s⁻¹ | –
26 | C16U G32U U69A | 9.39e-05 ± 2e-05 s⁻¹ | – | – | 0.000104 ± 1.9e-05 s⁻¹ | – | 9.19e-05 ± 1.8e-05 s⁻¹ | –
27 | G29A A48C | 3.13e-05 ± 8.9e-06 s⁻¹ | – | 3.4e-05 ± 1.6e-05 s⁻¹ | – | – | – | –
28 | C16U G41U | 0.00145 ± 0.00031 s⁻¹ | 599 ± 170 µM | 0.00155 ± 0.00029 s⁻¹ | 0.00126 ± 0.00027 s⁻¹ | 0.000229 ± 4.6e-05 s⁻¹ | 0.000727 ± 0.00014 s⁻¹ | 9.78e-05 ± 8.3e-06 s⁻¹
29 | G29U G32C G43U A53U | 1.74e-05 ± 3.6e-06 s⁻¹ | 9610 ± 3900 µM | – | – | – | – | < 1e-05 s⁻¹
30 | G29A U49G | 6e-05 ± 8e-06 s⁻¹ | – | 4.32e-05 ± 1.4e-05 s⁻¹ | 6.26e-05 ± 1.1e-05 s⁻¹ | – | 4.72e-05 ± 1.7e-05 s⁻¹ | –
31 | G29A G59C C70G | < 1e-05 s⁻¹ | – | – | – | – | – | –
32 | U30C A53C | 3.34e-05 ± 6.8e-06 s⁻¹ | – | 3.87e-05 ± 9.7e-06 s⁻¹ | 2.78e-05 ± 9e-06 s⁻¹ | < 1e-05 s⁻¹ | – | –
33 | G29C G41C | 1.23e-05 ± 4.8e-07 s⁻¹ | 2750 ± 290 µM | – | – | < 1e-05 s⁻¹ | < 1e-05 s⁻¹ | –
34 | G29A G37C | 1.28e-05 ± 1.4e-06 s⁻¹ | – | – | – | – | – | –
